Tests used:
[1] = Biotin inhibition of HABA binding to avidin; settings: competitive binding of biotin and HABA to avidin
Description: The normalized absorbance value was obtained by subtracting from all the absorbance values, the value at which the absorbance change stopped.
In vivo, avidin exists as a homotetramer and its activity is to bind biotin to protect avian and reptilian eggs from pathogen invasion. Based upon this biotin-binding property, an analog of biotin, HABA, is utilized for the quantification of activity. Using the HABA binding assay, estimates of total avidin amounts in the fractions eluted from the affinity column were identical to estimates made by ELISA.

[2] = Effect of protease inhibitors on avidin stability in flaked maize kernel extract (biotin binding activity); type: physicochemical; settings: control avidin dissolved in extraction buffer
Protocol: Dry maize kernels (12% MC; 500 g per batch) were first cracked using a roller mill (Ferrell-Ross, Oklahoma City, Okla.), then flaked to 0.3 mm thickness using Roskamp flaking rolls (Model K, Roskamp Mfg., Inc., Waterloo, Iowa.). The particle size distribution of flaked material was determined by sieving (see Table 1).
Twenty grams of flaked kernels were extracted with 200 ml of Tris-HCl pH 7.9 containing 500 mM NaCl, 1 mM CaCl2 with stirring for 30 min at ambient temperature. One extraction was performed in the absence of protease inhibitors (control) and one in the presence of a protease inhibitor mixture containing 10 mM 2-mercaptoethanol (2-ME), 5 mM ethylenediamine tetraacetic acid (EDTA), 0.1 mM phenylmethanesulfonyl fluoride (PMSF), and 0.2 mM Diazo-N-acetyl-N-Leu-MeO. EDTA and 2-ME were added at the beginning of the extraction, and PMSF and diazo-N-acetyl-N-Leu-MeO were added 15 minutes after the extraction began. The insoluble residue was separated by centrifugation at 20,500×g for 25 minutes at 0° C. The supernatant was filtered through four layers of cheesecloth. […] D: Residual avidin activity in cooked egg white assayed with improved sensitivity. J. Food Sci. 56:707 (1991].and for protein integrity on western blots. For a positive control, chicken egg white avidin (Sigma Chemical Co.) was dissolved in the extraction buffer and samples were taken as above for activity assays.

[3] = Isoelectric point determination; type: physicochemical; settings: 10 is the highest pI that can be experimentally determined

In the case of “egg white: native chicken egg white avidin (Sigma Chemical Co.)”, the Ki [1] is reported as 3.2 µM, the “avidin activity in extraction buffer” value ([2]; 0 h) is reported as 88.2 µg/mL and the “avidin activity in extraction buffer” value ([2]; 1 h) is reported as 62.6 µg/mL. For the same substance, the “avidin activity in extraction buffer” value ([2]; 3 h) was 61.1 µg/mL, the “avidin activity in extraction buffer” value ([2]; 6 h) was 60.6 µg/mL and the “avidin activity in extraction buffer” value ([2]; 22 h) was 59.6 µg/mL. It also gave a pI [3] of 10.

Reference: patent publication US7071384B2, “Methods for commercial production of heterologous laccase in plant tissue and extraction of the laccase from plant seed” (Genencor International, Inc., priority 1997, dated 2006)
